Numbered stars: 1 amine (or outer) side, 2 acyl side, 3 side chain; on linkers, the order of the positions; unused ones are H or OH. Bridge positions count the residues as written; N and C are the ends. Square brackets hold non-standard residues; d marks the D form. Ends that are not written are not given here. Tm = trimesic acid, bicyclized on Tm at the N-terminus; Trimesoyl = O=C(c1cc(C(=O)[*:2])cc(C(=O)[*:3])c1)[*:1]; 2Nal = N[C@@H](Cc1ccc2ccccc2c1)C(=O)O; Dap = NC[C@H](N)C(=O)O; βAla = NCCC(=O)O
What was measured:
[1] = molecular target: Recombinant GST-NEMO (from plasmid pGEX4T3-NEMO(1-196)) (UniProt Q9Y6K9); assay: HTRF competition against biotin-IKKβKK/RR(701-745) on GST-NEMO
Chain of Recombinant GST-NEMO (from plasmid pGEX4T3-NEMO(1-196)) (Q9Y6K9 1-196): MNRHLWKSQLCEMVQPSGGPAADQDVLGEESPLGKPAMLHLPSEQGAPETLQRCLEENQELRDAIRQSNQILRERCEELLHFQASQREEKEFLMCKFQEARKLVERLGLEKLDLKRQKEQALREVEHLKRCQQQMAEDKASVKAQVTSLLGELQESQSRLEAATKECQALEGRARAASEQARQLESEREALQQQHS

[2] = molecular target: Recombinant GST-NEMO (from plasmid pGEX4T3-NEMO(1-196)) (UniProt Q9Y6K9); assay: HTRF competition IC50, peptide 7 against peptide 6
[3] = molecular target: Recombinant GST-NEMO (from plasmid pGEX4T3-NEMO(1-196)) (UniProt Q9Y6K9); assay: HTRF competition IC50 against peptide 7; upper end tied to peptide 12 by Table 5 (3.0 vs 1.0 µM)
[4] = molecular target: Recombinant GST-NEMO (from plasmid pGEX4T3-NEMO(1-196)) (UniProt Q9Y6K9); assay: HTRF competition IC50 against peptide 7; lower end tied to peptide 13 by Table 5 (1.7 vs 1.0 µM)
[5] = molecular target: Recombinant GST-NEMO (from plasmid pGEX4T3-NEMO(1-196)) (UniProt Q9Y6K9); assay: HTRF competition IC50 against peptide 7
[6] = molecular target: Recombinant GST-NEMO (from plasmid pGEX4T3-NEMO(1-196)) (UniProt Q9Y6K9); assay: HTRF competition against biotin-IKKβKK/RR(701-745) on GST-NEMO; lower end tied to peptide 2 by the same paragraph

Molecule | IC50 [1] | other results
peptide 19, Tm(GWIYA)Δ(FΦRrRΔ)-BBK (as printed) | 1.2 µM | 
Trimesoyl-GWIY[Dap]F[2Nal]R[dR]R[Dap][βAla][βAla]K (linker N-5-11 via Tm) [peptide 6, Tm(GWIY)Δ(FΦRrRΔ)-BBK] | 5.9 µM | 
Trimesoyl-GWIYA[Dap]F[2Nal]R[dR]R[Dap][βAla][βAla]K (linker N-6-12 via Tm) [peptide 7, Tm(GWIYA)Δ(FΦRrRΔ)-BBK] | 1 µM | fold increase in binding affinity (against peptide 6) [2]: 5.9 fold
Trimesoyl-GWIY[dA][Dap]F[2Nal]R[dR]R[Dap][βAla][βAla]K (linker N-6-12 via Tm) [peptide 8, Tm(GWIYa)Δ(FΦRrRΔ)-BBK] | 2.9 µM | 
Trimesoyl-AGWIY[Dap]F[2Nal]R[dR]R[Dap][βAla][βAla]K (linker N-6-12 via Tm) [peptide 9, Tm(AGWIY)Δ(FΦRrRΔ)-BBK] | 2.2 µM | 
Trimesoyl-[dA]GWIY[Dap]F[2Nal]R[dR]R[Dap][βAla][βAla]K (linker N-6-12 via Tm) [peptide 10, Tm(aGWIY)Δ(FΦRrRΔ)-BBK] | 2.3 µM | 
Trimesoyl-AWIYA[Dap]F[2Nal]R[dR]R[Dap][βAla][βAla]K (linker N-6-12 via Tm) [peptide 11, Tm(AWIYA)Δ(FΦRrRΔ)-BBK] | 1.2 µM | 
Trimesoyl-GAIYA[Dap]F[2Nal]R[dR]R[Dap][βAla][βAla]K (linker N-6-12 via Tm) [peptide 12, Tm(GAIYA)Δ(FΦRrRΔ)-BBK] | 3 µM | fold decrease in potency (against peptide 7) [3]: 2 to 3 fold
Trimesoyl-GWAYA[Dap]F[2Nal]R[dR]R[Dap][βAla][βAla]K (linker N-6-12 via Tm) [peptide 13, Tm(GWAYA)Δ(FΦRrRΔ)-BBK] | 1.7 µM | fold decrease in potency (against peptide 7) [4]: 2 to 3 fold
Trimesoyl-GWIAA[Dap]F[2Nal]R[dR]R[Dap][βAla][βAla]K (linker N-6-12 via Tm) [peptide 14, Tm(GWIAA)Δ(FΦRrRΔ)-BBK] | 2.8 µM | 
Trimesoyl-GWIYA[Dap]A[2Nal]R[dR]R[Dap][βAla][βAla]K (linker N-6-12 via Tm) [peptide 15, Tm(GWIYA)Δ(AΦRrRΔ)-BBK] | 1.9 µM | 
Trimesoyl-GWIYA[Dap]F[2Nal]A[dR]R[Dap][βAla][βAla]K (linker N-6-12 via Tm) [peptide 17, Tm(GWIYA)Δ(FΦArRΔ)-BBK] | 1.1 µM | 
Trimesoyl-GWIYA[Dap]F[2Nal]R[dA]R[Dap][βAla][βAla]K (linker N-6-12 via Tm) [peptide 18, Tm(GWIYA)Δ(FΦRaRΔ)-BBK] | 2.1 µM | 
Trimesoyl-GAIAA[Dap]F[2Nal]R[dR]R[Dap][βAla][βAla]K (linker N-6-12 via Tm) [peptide 20, Tm(GAIAA)Δ(FΦRrRΔ)-BBK] | 16 µM | fold lower NEMO-binding affinity (against peptide 7) [5]: 16 fold
Trimesoyl-GWIY[Dap]F[2Nal]RRR[Dap][βAla][βAla]K (linker N-5-11 via Tm) [peptide 2, Tm(GWIY)Δ(FΦRRRΔ)-BBK] | 3.4 µM | IC50 [6]: 3.4 to 28 µM
Trimesoyl-GAAAA[Dap]F[2Nal]R[dR]R[Dap][βAla][βAla]K (linker N-6-12 via Tm) [peptide 21, Tm(GAAAA)Δ(FΦRrRΔ)-BBK] |  | fold lower NEMO-binding affinity (against peptide 7) [5]: > 100 fold
Trimesoyl-GWIY[Dap]F[2Nal]RRRR[Dap][βAla][βAla]K (linker N-5-12 via Tm) [peptide 3, Tm(GWIY)Δ(FΦRRRRΔ)-BBK] | 1.5 µM | 

Reference: patent US20200291070A1
